Measured values: patent US20230218738A1 (Pfizer, published 2023)
Numbering of substitutions follows the chain as printed.

T1: RSV F protein mutant pXCS855 (RSV A2, UniProt P03420 26-109)
T1 chain 1: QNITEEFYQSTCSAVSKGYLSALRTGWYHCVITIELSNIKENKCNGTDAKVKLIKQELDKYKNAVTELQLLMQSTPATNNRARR
T1 chain 2: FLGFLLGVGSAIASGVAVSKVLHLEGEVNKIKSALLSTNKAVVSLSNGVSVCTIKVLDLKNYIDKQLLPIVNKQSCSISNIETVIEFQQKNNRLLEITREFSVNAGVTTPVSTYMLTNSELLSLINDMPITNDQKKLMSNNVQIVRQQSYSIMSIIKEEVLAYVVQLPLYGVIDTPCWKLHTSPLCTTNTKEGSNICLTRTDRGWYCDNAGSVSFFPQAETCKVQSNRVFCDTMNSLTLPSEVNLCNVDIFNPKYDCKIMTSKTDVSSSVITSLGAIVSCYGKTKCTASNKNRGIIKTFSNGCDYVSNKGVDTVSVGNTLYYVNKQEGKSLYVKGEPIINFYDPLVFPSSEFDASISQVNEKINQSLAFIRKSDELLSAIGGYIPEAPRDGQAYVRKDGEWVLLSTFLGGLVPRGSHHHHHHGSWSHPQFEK

T2: RSV F protein mutant pXCS842 (RSV A2, UniProt P03420 26-109)
T2 chain 1: T1 chain 1 with C30S, T78C
T2 chain 2: T1 chain 2 with I12C, C52L

T3: RSV F protein mutant pXCS785 (RSV A2, UniProt P03420 26-109)
T3 chain 1: T1 chain 1
T3 chain 2: T1 chain 2 with I54S, V160I, S350D

T4: RSV F protein mutant pXCS849 (RSV A2, UniProt P03420 26-109)
T4 chain 1: T1 chain 1 with C30S, T78C
T4 chain 2: T1 chain 2 with I12C, C52L, I54S, V160I

B1: MPE8 (antibody, V domains shown)
VH: EVQLVESGGGLVKPGGSLRLSCAASGFTFSSYSMNWVRQAPGKGLEWVSSISASSSYSDYADSAKGRFTISRDNAKTSLFLQMNSLRAEDTAIYFCARARATGYSSITPYFDIWGQGTLVTVSS
VL: QSVVTQTPSVSGAPGQRVTISCTGSSSNIGAGYDVHWYQQLPGTAPKLLIYDNNNRPSGVPDRFSASKSGTSASLAITGLQAEDEADYYCQSYDRNLSGVFGTGTKVTVL
notes: also called MPEG
B2: AM22 (antibody, V domains shown)
VH: QVQLVQSGAEVKKPGATVKVSCKISGHTLIKLSIHWVRQAPGKGLEWMGGYEGEVDEIFYAQKFQHRLTVIADTATDTVYMELGRLTSDDTAVYFCGTLGVTVTEAGLGIDDYWGQGTLVTVSS
VL: EIVLTQSPGTLSLSPGERATLSCRASQIVSRNHLAWYQQKPGQAPRLLIFGASSRATGIPVRFSGSGSGTDFTLTINGLAPEDFAVYYCLSSDSSIFTFGPGTKVDFK

Experiments:
Experiment in all cases: BLI (Octet), F on anti-HIS tip, 20 nM mAb
[1] = biological target: T1, RSV F protein mutant pXCS855
[2] = biological target: T2, RSV F protein mutant pXCS842
[3] = biological target: RSV F protein mutant pXCS787 (RSV A2, UniProt P03420 26-109)
[4] = biological target: RSV F protein mutant pXCS754 (RSV A2, UniProt P03420 26-109)
[5] = biological target: T3, RSV F protein mutant pXCS785
[6] = biological target: RSV F protein mutant pXCS781 (RSV A2, UniProt P03420 26-109)
[7] = biological target: RSV F protein mutant pXCS885 (RSV A2, UniProt P03420 26-109)
[8] = biological target: RSV F protein mutant pXCS889 (RSV A2, UniProt P03420 26-109)
[9] = biological target: RSV F protein mutant pXCS853 (RSV A2, UniProt P03420 26-109)
[10] = biological target: RSV F protein mutant pXCS857 (RSV A2, UniProt P03420 26-109)
[11] = biological target: T4, RSV F protein mutant pXCS849

Row | Binder | Response (nm shift) [1] [nm] | Response (nm shift) [2] [nm] | Response (nm shift) [3] [nm] | Response (nm shift) [4] [nm] | Response (nm shift) [5] [nm] | Response (nm shift) [6] [nm] | Response (nm shift) [7] [nm] | Response (nm shift) [8] [nm] | Response (nm shift) [9] [nm] | Response (nm shift) [10] [nm] | Response (nm shift) [11] [nm]
1 | B1 | 0.982 | 0.932 | 0.621 | 0.676 | 0.937 | 0.876 | 0.408 | 0.889 | 0.905 | 1.09 | 0.908
2 | B2 | 0.523 | 0.493 | 0.225 | 0.298 | 0.465 | 0.423 | 0.105 | 0.477 | 0.484 | 0.563 | 0.43
